Measured values published in patent US11389485.

Key:
[1] = molecular target: CD33 variant having the fragment encoded by exon 2 deleted (CD33ex2) (human) (UniProt P20138); assay: cell-based or functional assay
[2] = molecular target: human CD33, full-length (CD33M) (human) (UniProt P20138); assay: cell-based or functional assay

B1: gemtuzumab ozogamicin (antibody, INN chains, looked up, V domains shown)
VH: EVQLVQSGAEVKKPGSSVKVSCKASGYTITDSNIHWVRQAPGQSLEWIGYIYPYNGGTDYNQKFKNRATLTVDNPTNTAYMELSSLRSEDTAFYYCVNGNPWLAYWGQGTLVTVSS
VL: DIQLTQSPSTLSASVGDRVTITCRASESLDNYGIRFLTWFQQKPGKAPKLLMYAASNQGSGVPSRFSGSGSGTEFTLTISSLQPDDFATYYCQQTKEVPWSFGQGTKVEVKR
modifications: ozogamicin (calicheamicin) conjugate
B1 showed an IC50 of GO cytotoxicity, HSPC CD33ex2 [1] of 246 ng/mL, an IC50 of GO cytotoxicity (viable cell number, Celltiter Glo, 72 h), HL-60 cells [2] of 35.5 ng/mL and an IC50 of GO cytotoxicity (viable cell number, Celltiter Glo, 72 h), THP-1 cells [2] of 16.3 ng/mL. The IC50 of GO cytotoxicity, wild-type HSPC [2] was 93.4 ng/mL.
